Consider 2 proteins from patent publication US20210301277.

In this data set the target is T1, human TF (Innovin, DADE/Behring), P13726.
T1 chain: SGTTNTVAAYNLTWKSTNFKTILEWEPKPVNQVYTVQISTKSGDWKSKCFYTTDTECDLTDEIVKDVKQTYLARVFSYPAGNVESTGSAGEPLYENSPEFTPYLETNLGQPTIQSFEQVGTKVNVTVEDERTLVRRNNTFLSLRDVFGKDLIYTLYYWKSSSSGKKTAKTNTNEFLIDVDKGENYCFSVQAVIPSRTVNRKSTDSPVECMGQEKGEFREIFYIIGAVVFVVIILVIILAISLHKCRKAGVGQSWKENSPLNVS

B1: PCgla-egf1FVIIa (protein)
chain 1: ANSFLEELRHSSLERECIEEICDFEEAKEIFQNVDDTLAFWSKHVDGDQCLVLPLEHPCASLCCGHGTCIDGIGSFSCDCRSGWEGRFCQRKDDQLICVNENGGCEQYCSDHTGTKRSCRCHEGYSLLADGVSCTPTVEYPCGKIPILEKRNASKPQGR
chain 2: IVGGKVCPKGECPWQVLLLVNGAQLCGGTLINTIWVVSAAHCFDKIKNWRNLIAVLGEHDLSEHDGDEQSRRVAQVIIPSTYVPGTTNHDIALLRLHQPVVLTDHVVPLCLPERTFSERTLAFVRFSLVSGWGQLLDRGATALELMVLNVPRLMTQDCLQQSRKVGDSPNITEYMFCAGYSDGSKDSCKGDSGGPHATHYRGTWYLTGIVSWGQGCATVGHFGVYTRVSQYIEWLQKLMRSEPRPGVLLRAPFP
With B1, the “FX activation in the presence of 1 nM TF (FXa generation rates, mOD/min)” value is recorded as “The lack of FX activation, even at 100-fold higher concentration than that of rFVIIa” and the “TF-dependent activity (FX activation, cleavage of chromogenic FXa substrate at 405 nm)” value is “the activity of PCgla-egf1FVIIa was identical to the vehicle control”.

B2: FIXgla-egf1FVIIa (protein)
chain: YNSGKLEEFVQGNLERECMEEKCSFEEAREVFENTERTTEFWKQYVDGDQCESNPCLNGGSCKDDINSYECWCPFGFEGKNCETHKDDQLICVNENGGCEQYCSDHTGTKRSCRCHEGYSLLADGVSCTPTVEYPCGKIPILEKRNASKPQGRIVGGKVCPKGECPWQVLLLVNGAQLCGGTLINTIWVVSAAHCFDKIKNWRNLIAVLGEHDLSEHDGDEQSRRVAQVIIPSTYVPGTTNHDIALLRLHQPVVLTDHVVPLCLPERTFSERTLAFVRFSLVSGWGQLLDRGATALELMVLNVPRLMTQDCLQQSRKVGDSPNITEYMFCAGYSDGSKDSCKGDSGGPHATHYRGTWYLTGIVSWGQGCATVGHFGVYTRVSQYIEWLQKLMRSEPRPGVLLRAPFP
With B2, the “FX activation in the presence of 1 nM TF (FXa generation rates, mOD/min)” value is “The lack of FX activation, even at 100-fold higher concentration than that of rFVIIa”.
